In one data set the test system is NIH 3T3 cells. In words: HoxB4 and TAT-HoxB4 delivery, luciferase reporter under a HoxB4-inducible promoter. It is filed as cell-based, murine. The conditions noted are these: dTAT 3 μM alone. How it is done:
Next, the delivery of the therapeutically important transcription factor HoxB4 was tested. HoxB4 can penetrate cells by itself or when fused to the […] TAT and activate transcription. […] NIH 3T3 cells were transfected with a vector containing the luciferase gene under a HoxB4-inducible promoter and with a β-galactosidase reporter as internal control. Cells were incubated with HoxB4 or TAT-HoxB4, in the absence or presence of dTAT for 1.5 h. Cells were then lysed and luciferase expression was assessed by measuring the luminescence of cell lysates normalized to β-galactosidase activity. […] These values are consistent with previously published reports. In contrast, addition of dTAT (3 μM), led to a luciferase induction of 53.1 and 307.4, respectively. The luciferase induction was therefore increased 24-fold in the presence of dTAT for HoxB4 and 61-fold for TAT-HoxB4. […] While increasing the transcriptional output of HoxB4 is valuable, high levels of HoxB4 expression can result in anti-proliferative and transforming effects. Precisely controlling the level and activity of HoxB4 inside cells is therefore important to achieve a desirable biological outcome. Because dTAT appears to act independently of the molecules used for co-incubation in our assays, it was hypothesized that it might be possible to titrate the amount of protein that penetrates cells by varying the protein concentration in the media while keeping dTAT concentration constant. Under this scenario, the efficiency of endosomal escape should remain unaffected but the amount of material released from endosomes should change.
The murine fibroblast cell line (NIH-3T3, stably transfected with the E2A-PBX vector), the luciferase reporter vector, pML (5×HOX/PBX; contains a promoter with binding sites for HOXB4 and PBX) and the β-gal internal control vector used in the following studies were kindly provided by P. Zandstra (University of Toronto, Ontario, Canada). The cells were initially cultured in 100 mm dishes at 37° C. with 5% CO2 in DMEM supplemented with 10% FBS. For experimental purposes, however, cells were seeded in 24-well plates at a density of 5-6×10^4 cells/well for 24 hours. Subsequently, cells were co-transfected with 0.8 μg/mL of pML (5×HOX/PBX) and of the β-gal internal control vector using Lipofectamine 2000. Twelve hours post-transfection, cells were washed and incubated with TAT-HoxB4 or HoxB4 (both at 200 nM, unless otherwise noted; see below) with or without TAT or dTAT in nrL-15 for 90 min. Some cells were also incubated with TAT-mCherry (200 nM) with and without the peptides. After incubation, all cells were washed with PBS and lysed according to the manufacturer's protocol for the reporter lysis buffer (RLB) (Promega). For titration experiments, the same protocol was followed, with the exception that HoxB4 concentrations were varied (25, 50, 100, 150 and 200 nM). In order to quantitate the luciferase reporter activity, 100 μL of luciferase assay reagent (Promega) was added to 20 μL of cell lysate and bioluminescence was immediately measured using a SpectraMaxL luminometer (Sunnyvale, Calif.). […] Absorbance was then measured at 450 nm using the plate reader. Since the absorption spectrum of the chromophore (TMR) conjugated to the peptide used in this study overlaps with that of β-gal, 20 μL of cell lysate containing the peptide was also diluted with 180 μL of the lysis buffer and absorbance values obtained at 450 nm were subtracted from that of the β-gal absorbance values. […]
In general terms: Reporter assays use an easily measured gene product as a stand-in for the process of interest.

The test system of the next data set is HeLa cells. In words: Cell viability, SYTOX exclusion assay. It is filed as cell-based. How it is done: In order to determine cells that had compromised plasma membranes, cells were treated with SYTOX® Green (SYTOX® Blue in some cases) and Hoechst (Invitrogen, Carlsbad, Calif.). SYTOX® dyes are cell-impermeable and stain the DNA of cells with compromised plasma membranes. The Hoechst dye is cell permeable and stains the DNA of all cells. Images were acquired using the green and blue filter. The green and blue images were used to count cells with a blue or green stained nucleus. Image J was used to count the dead (green) and total cells (blue). Cytotoxicity was determined from the ratio of SYTOX® Green positive cells/total number of cells. An MTT-assay was performed to determine the effect of the peptide on cell proliferation. Cells were seeded in a 6-well dish, grown and washed as described above. One well from the dish was incubated with 5 μM dTAT at 37° C. for 1 h. A second well was left untreated and served as control. […] Cells were trypsinized and seeded into 96-well dishes containing 200 μL of DMEM. The cells were then allowed to attach to the bottom of the dish for 12 h. […] After the incubation each sample was mixed and the absorbance at 600 nm was measured. […] A second control consisted of cells treated with the delivery peptide but to which no MTT was added to subtract the contribution of TMR from the measured absorbance. The absorbance of the negative control was subtracted from all samples.

Ends that are not written are not given here.

Turning to “(CK(TMR)TAT)2 (CK(TMR)RKKRRQRRRG; also: dimer) [dTAT, dimer of two CK(TMR)-TAT monomers linked via a disulfide bond between the N-terminal cysteine residues]”, the induction of luciferase result in the data set on NIH 3T3 cells is “Neither dTAT alone nor dTAT incubated with TAT-mCherry led to the induction of luciferase”. In the data set with HeLa cells (5 μM), the “effect on cell viability” value was “does not affect cell viability”. In the data set on HeLa cells (5 μM dTAT, 1 h incubation, 1, 24 and 48 h after incubation), the “fraction of dead cells” value was “below 5%”.

The values are drawn from patent US9662404B2, “Compositions and methods for the delivery of molecules into live cells” (The Texas A&M University System, priority 2013, dated 2017).
